From patent US20210196823A1, “Methods of Treating Metabolic Disease” (Pfizer Inc., priority 2018, published 2021)

What was measured:
[1] = test system: biotinylated monoFC-muErfe; assay: FRET assay: BMPs disrupting binding of cryptate-labelled anti-ERFE antibody 15.1 to biotinylated monoFC-muErfe; parameters: species or system murine; conditions: competing antigen 250 nM to 0.39 nM, Ab 15.1 15 nM, 3 hours room temperature
Experimental: (a) Investigation of the ability of BMPs to disrupt binding of cryptate-labelled anti-ERFE antibody to biotinylated murine ERFE: FRET assay was used to determine the ability of BMPs to disrupt binding between ERFE and a neutralising anti-ERFE antibody (Ab 15.1). The assay setup comprised streptavidin XL665 (cisbio assays) at a constant concentration of 1:1000 to be 50 ng per well, biotinylated monoFC-muErfe (9 μM) i.e. a monomeric FC murine ERFE fusion, cryptate labelled anti-ERFE antibody (Ab 15.1) at 15 nM. Each reaction well contained a total volume of 20 μl comprising: 5 μl streptavidin XL665, 5 μl Biotinylated monoFC-muErfe, 5 μl cryptate labelled anti-ERFE antibody 15.1, 5 μl competing antigen as a titration from 250 nM to 0.39 nM, all antigens at each concentration were assayed in duplicate. Reactions were left for 3 hours at room temperature and then […] at 665 nm and […] was read on the Envision. […] The assay was also conducted using a non-neutralising anti-ERFE antibody as a control.

BMP4 = target: T1, BMP4 (UniProt P12644 293-408); assay: SPR (Biacore)
T1 chain: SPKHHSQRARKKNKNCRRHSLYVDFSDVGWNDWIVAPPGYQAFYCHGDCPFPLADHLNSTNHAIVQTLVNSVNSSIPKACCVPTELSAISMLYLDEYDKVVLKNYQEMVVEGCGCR

BMP2 = target: T2, BMP2 (UniProt P12643 283-396); assay: SPR (Biacore)
T2 chain: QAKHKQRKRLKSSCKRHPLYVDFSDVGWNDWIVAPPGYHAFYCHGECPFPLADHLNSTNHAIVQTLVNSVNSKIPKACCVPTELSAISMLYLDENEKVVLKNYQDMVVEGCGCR

BMP6 = target: T3, BMP6 (UniProt P22004 382-513); assay: SPR (Biacore)
T3 chain: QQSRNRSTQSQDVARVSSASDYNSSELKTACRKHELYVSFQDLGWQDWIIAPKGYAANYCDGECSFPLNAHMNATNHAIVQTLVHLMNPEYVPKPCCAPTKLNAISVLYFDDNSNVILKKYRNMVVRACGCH

[2] = test system: HAMP-nanoluciferase fusion in HepG2 hepatoma cells; assay: hepcidin transcriptional fusion reporter assay (nano-luc / nano-luciferase assay); type: cell-based; conditions: for hepcidin expression (hepcidin-nanoluciferase fusion expression): NanoLuc cells, serially diluted BMP, 24 h
Experimental: The was measured in-vitro using as follows: A hepcidin transcriptional fusion reporter assay (nano-luc or nano-luciferase assay) was developed to assess the effect of BMPs on hepcidin production in-vitro. A nanoluciferase reporter was inserted at the end of the coding sequence of the endogenous HAMP gene, in HepG2 hepatoma cells, creating a HAMP-nanoluciferase fusion. CRISPR-Cas9 was used to edit the cells with this knock-in reporter construct. A bovine Growth Hormone poly A was included after the nanoLuc to ensure proper mRNA processing. A Puromycin-TK expression cassette was also included 3′ of the nanoluc reporter to enrich for properly targeted clones. […] Approximately 20,000 cells (cells split with trypsin/EDTA) were suspended in 200 uL of complete media (DMEM+10% serum+Na pyruvate) and were distributed into each well of 96-well plates and incubated for 24 hours at 37 C. Media was then aspirated and the cells treated in 100 uL complete media for 24 h at 37 C in the presence of the selected BMP which was serial diluted (in duplicates), controls of fresh media alone were used for a baseline signal (in duplicate). Following the incubation 90 uL of supernatant was transferred to a white wall 96 well plate and equilibrated at RT, 90 uL of RT NanoLuc reagent was added/well (for 1 plate, 10 mL diluting reagent+200 uL NanoLuc substrate—from Nano-Glo Luciferase Assay System, Promega, ref cat #N1150) and mixed 2-3 min at room temperature. Plates were read on Envision with Lum700 program following the manufacturer's instructions.

Huh7 cells = assay: Gene expression microarray of Huh7 cells treated with ERFE; type: cell-based; conditions: Huh7, ERFE 10 μg/ml, 24 h
Experimental: (b) Gene expression microarray: Microarray analysis of Huh7 cells treated with mouse or human erythroferrone was carried out to test the activity of erythroferrone on the BMP/SMAD signalling pathway. Generally cell treatments were carried out according to the following protocol: Huh7 and HepG2 were cultured in Dulbecco's Modified Eagle's Medium—High Glucose (Sigma), supplemented with 10% Fetal Bovine Serum (Sigma), 1% Penicillin-Streptomycin (Sigma) and 1% L-Glutamine (Sigma), unless otherwise indicated. Cells were plated 24 h before treatments in 24-well (gene expression analysis) or 12-well (protein analysis) cell culture plates. At the time of treatment, cells were washed with PBS and fresh media was added.
For the purposes of gene expression microarray analysis RNA was isolated from the Huh7 cells using RNeasy Plus kit (Qiagen), this was followed by RNA quantification and quality assessment using a 2100 Bioanalyzer (Agilent). RNA was converted into biotin labelled cRNA for hybridization and gene expression analysed using the Human HT12v4.0 Expression Beadchip (Illumina) and the Illuminas's iScan Scanner. Raw data was normalised using the lumi package (Bioconductor) and compared using LIMMA (Bioconductor). Statistical significance was set at p<0.05.

[3] = test system: SMAD1/5/8 phosphorylation in Huh7 cells; assay: Western blot of SMAD1/5/8 phosphorylation in Huh7 cells; type: cell-based; conditions: Huh7, BMP6 stimulation, 30 min
Experimental: (d) ERFE effects on BMP/SMAD signalling measured by SMAD 1/5/8 phosphorylation: To confirm the suppression of BMP/SMAD signalling, we analysed phosphorylation of SMAD1/5/8, required to transduce the signal leading to HAMP upregulation. Analysis was carried out by Western blot according to the following methodology: Cells were lysed at 4° C. using RIPA buffer (Thermo Scientific) containing protease/phosphatase inhibitor (Cell Signalling). Lysates were denatured at 95° C. and separated on a 10% SDS polyacrylamide gel (Bio-Rad), following the manufacturer's instruction. Protein sizes were estimated by using the Novex Sharp Pre-Stained Protein Ladder (life technologies). Protein was transferred to a nitrocellulose membrane, then blocked with milk/TBS for 1 h. Antibodies used were anti-P-SMAD 1/5 (S463s/465)/9(S465/467) (Cell signalling 13820S 1:500), anti-Smad1 (Cell Signalling 6944S 1:500), anti-β-actin-peroxidase (Sigma A3854 1:10 000), and Anti-rabbit IgG HRP conjugated (RnD systems HAP008 1:5000). […] In this case Huh7 cells were treated with mouse ERFE (10 μg/ml) or BMP6 and LDN, a small molecule inhibitor of BMPs, (100 nM), alone or in combination, for 30 min and pSMAD/SMAD ratios values were calculated by densitometry. Erythroferrone caused a decrease in SMAD phosphorylation relative to non-treated cells (FIG. 3D).

Chain of biotinylated monoFC-muErfe (Q6PGN1 25-340): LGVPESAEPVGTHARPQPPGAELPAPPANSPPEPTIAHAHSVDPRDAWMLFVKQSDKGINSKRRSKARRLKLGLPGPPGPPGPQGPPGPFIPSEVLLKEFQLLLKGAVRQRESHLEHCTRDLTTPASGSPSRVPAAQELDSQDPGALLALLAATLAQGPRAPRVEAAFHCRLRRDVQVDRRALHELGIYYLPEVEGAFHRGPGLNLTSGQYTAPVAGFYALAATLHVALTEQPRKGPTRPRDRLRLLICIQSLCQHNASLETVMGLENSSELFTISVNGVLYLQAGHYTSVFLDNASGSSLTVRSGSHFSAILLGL

With “BMP4: bone morphogenetic protein 4 (R&D systems)” the “competition with cryptate labelled anti-ERFE antibody for binding to biotinylated monoFC-muErfe” value (shortened to “competition”) [1] was “did not compete effectively”.

B1: BMP5: bone morphogenetic protein 5 (R&D systems) (protein)
chain: AANKRKNQNRNKSSSHQDSSRMSSVGDYNTSEQKQACKKHELYVSFRDLGWQDWIIAPEGYAAFYCDGECSFPLNAHMNATNHAIVQTLVHLMFPDHVPKPCCAPTKLNAISVLYFDDSSNVILKKYRNMVVRSCGCH
In the case of B1, the “competition” value [1] is reported as “measurable competition”.

B2: ERFE A4-biotin (ligand)
chain: AAGLGSPEPGAPSRSAAAAEPPPGNELPRGPGESRAGPAARPPEPTAERAHSVDPRDAWMLFVRQSDKGVNGKKRSRGKAKKLKFGLPGPPGPPGPQGPPGPIIPPEALLKEFQLLLKGAVRQRERAEPEPCTCGPAGPVAASLAPVSATAGEDDDDVVGDVLALLAAPLAPGPRAPRVEAAFLCRLRRDALVERRALHELGVYYLPDAEGAFRRGPGLNLTSGQYRAPVAGFYALAATLHVALGEPPRRGPPRPRDHLRLLICIQSRCQRNASLEAIMGLESSSELFTISVNGVLYLQMGQWTSVFLDNASGCSLTVRSGSHFSAVLLGV
modifications: biotin (site not stated)
For B2, the Kd (BMP4) was 41.1 nM, the Kd (BMP2) was 16.1 nM and the Kd (BMP6) was 1.17 nM.

B3: monoFC-huErfe: monomeric Fc fusion of human ERFE; FIG. 3L legend names the A4 mutant (protein)
chain: AAGLGSPEPGAPSRSRARREPPPGNELPRGPGESRAGPAARPPEPTAERAHSVDPRDAWMLFVRQSDKGVNGKKRSRGKAKKLKFGLPGPPGPPGPQGPPGPIIPPEALLKEFQLLLKGAVRQRERAEPEPCTCGPAGPVAASLAPVSATAGEDDDDVVGDVLALLAAPLAPGPRAPRVEAAFLCRLRRDALVERRALHELGVYYLPDAEGAFRRGPGLNLTSGQYRAPVAGFYALAATLHVALGEPPRRGPPRPRDHLRLLICIQSRCQRNASLEAIMGLESSSELFTISVNGVLYLQMGQWTSVFLDNASGCSLTVRSGSHFSAVLLGV
modifications: left off: a dimerising Fc or GST
With B3 the “suppression of hepcidin production (NanoLuc)” value ([2]; two fold dilutions from 600 nM, 24 hours) was “dose dependent”.

B4: BMP9: bone morphogenetic protein 9 (R&D systems) (protein)
chain: SAGAGSHCQKTSLRVNFEDIGWDSWIIAPKEYEAYECKGGCFFPLADDVTPTKHAIVQTLVHLKFPTKVGKACCVPTKLSPISVLYKDDMGVPTLKYHYEGMSVAECGCR
In the case of B4, the “hepcidin expression (hepcidin-nanoluciferase fusion expression)” value [2] is reported as “dose-dependent increase”.

B5: BMP7: bone morphogenetic protein 7 (R&D systems) (protein)
chain: STGSKQRSQNRSKTPKNQEALRMANVAENSSSDQRQACKKHELYVSFRDLGWQDWIIAPEGYAAYYCEGECAFPLNSYMNATNHAIVQTLVHFINPETVPKPCCAPTQLNAISVLYFDDSSNVILKKYRNMVVRACGCH
For B5, the “competition” value [1] was “measurable competition”.

B6: human ERFE: recombinant human erythroferrone, SEQ ID NO: 1 (protein, listed as Homo sapiens)
chain: MAPARRPAGARLLLVYAGLLAAAAAGLGSPEPGAPSRSRARREPPPGNELPRGPGESRAGPAARPPEPTAERAHSVDPRDAWMLFVRQSDKGVNGKKRSRGKAKKLKFGLPGPPGPPGPQGPPGPIIPPEALLKEFQLLLKGAVRQRERAEPEPCTCGPAGPVAASLAPVSATAGEDDDDVVGDVLALLAAPLAPGPRAPRVEAAFLCRLRRDALVERRALHELGVYYLPDAEGAFRRGPGLNLTSGQYRAPVAGFYALAATLHVALGEPPRRGPPRPRDHLRLLICIQSRCQRNASLEAIMGLESSSELFTISVNGVLYLQMGQWTSVFLDNASGCSLTVRSGSHFSAVLLGV
With B6 the “target genes of the JAK/STAT3 pathway” value (Huh7 cells) was “No changes” and the “number of suppressed genes” value (Huh7 cells; 5 are BMP/SMAD targets ID1, ID2, ID3, SMAD6, HAMP) was 12.

B7: BMP6: bone morphogenetic protein 6 (R&D systems) (protein)
chain: QQSRNRSTQSQDVARVSSASDYNSSELKTACRKHELYVSFQDLGWQDWIIAPKGYAANYCDGECSFPLNAHMNATNHAIVQTLVHLMNPEYVPKPCCAPTKLNAISVLYFDDNSNVILKKYRNMVVRACGCH
B7 was tested, and the “competition” value [1] was “measurable competition”, the “hepcidin expression (hepcidin-nanoluciferase fusion expression)” value [2] was “dose-dependent increase” and the SMAD phosphorylation [3] was “increase”.
